Measurements published in patent publication US20140178332A1 (published 2014).
Where a chain is given by its changes, count along the chain named. Like-named read-outs stand apart in the source and are kept apart here. Blank lines part the entries; values can stand above or below the binder they belong to.

What was measured:
[1] = target: T1, recombinant purified human IL-12 p70 (human, UniProt P29459 23-219); assay: cell-based or functional assay
T1 sequence 1: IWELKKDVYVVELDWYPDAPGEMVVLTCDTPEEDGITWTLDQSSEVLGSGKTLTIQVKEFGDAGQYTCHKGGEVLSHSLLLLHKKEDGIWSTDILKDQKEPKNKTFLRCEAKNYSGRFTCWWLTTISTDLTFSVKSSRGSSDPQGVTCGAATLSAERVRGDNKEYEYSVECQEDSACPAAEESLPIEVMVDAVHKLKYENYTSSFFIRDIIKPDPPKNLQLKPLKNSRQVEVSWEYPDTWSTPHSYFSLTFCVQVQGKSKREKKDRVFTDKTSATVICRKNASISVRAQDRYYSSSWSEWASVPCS
T1 sequence 2: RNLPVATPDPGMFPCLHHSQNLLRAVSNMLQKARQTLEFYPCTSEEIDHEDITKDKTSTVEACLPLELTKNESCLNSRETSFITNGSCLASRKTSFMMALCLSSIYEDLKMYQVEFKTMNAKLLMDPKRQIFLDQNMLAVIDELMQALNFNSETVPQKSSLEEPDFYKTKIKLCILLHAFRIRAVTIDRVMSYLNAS

[2] = target: T1, recombinant purified human IL-12 p70; assay: SPR (Biacore) according to Example 1.1.B
Experimental: (§1) The BIACORE assay (Biacore, Inc, Piscataway, N.J.) determines the affinity of antibodies with kinetic measurements of on-, off-rate constants. Binding of antibodies to recombinant purified human IL-12 p70 or recombinant purified human IL-12 p40 were determined by surface plasmon resonance-based measurements with a Biacore® 3000 instrument (Biacore® AB, Uppsala, Sweden) using running HBS-EP (10 mM HEPES [pH 7.4], 150 mM NaCl, 3 mM EDTA, and 0.005% surfactant P20) at 25° C. All chemicals were obtained from Biacore® AB (Uppsala, Sweden) or otherwise from a different source as described in the text. Approximately 5000 RU of goat anti-mouse IgG, (Fcγ), fragment specific polyclonal antibody (Pierce Biotechnology Inc, Rockford, Ill.) diluted in 10 mM sodium acetate (pH 4.5) was directly immobilized across a CM5 research grade biosensor chip using a standard amine coupling kit according to manufacturer's instructions and procedures at 25 μg/ml. Unreacted moieties on the biosensor surface were blocked with ethanolamine. Modified carboxymethyl dextran surface in flowcell 2 and 4 was used as a reaction surface. Unmodified carboxymethyl dextran without goat anti-mouse IgG in flow cell 1 and 3 was used as the reference surface. For kinetic analysis, rate equations derived from the 1:1 Langmuir binding model were fitted simultaneously to association and dissociation phases of all eight injections (using global fit analysis) with the use of Biaevaluation 4.0.1 software. Purified antibodies were diluted in HEPES-buffered saline for capture across goat anti-mouse IgG specific reaction surfaces. Mouse antibodies to be captured as a ligand (25 μg/ml) were injected over reaction matrices at a flow rate of 5 μl/min. The association and dissociation rate constants, kₒₙ (unit M⁻¹ s⁻¹) and koff (unit s⁻¹) were determined under a continuous flow rate of 25 μl/min. Rate constants were derived by making kinetic binding measurements at ten different antigen concentrations ranging from 10-200 nM. The equilibrium dissociation constant (unit M) of the reaction between mouse antibodies and recombinant purified human IL-12 p70 or recombinant purified human IL-12 p40 was then calculated from the kinetic rate constants by the following formula: KD=koff/kₒₙ. Binding is recorded as a function of time and kinetic rate constants are calculated.

[3] = target: T1, recombinant purified human IL-12 p70; assay: cell-based or functional assay; remark: listed apart in the source
[4] = target: T2, recombinant purified cyno IL-12 p70 (cynomolgus monkey); assay: cell-based or functional assay
T2 chain 1: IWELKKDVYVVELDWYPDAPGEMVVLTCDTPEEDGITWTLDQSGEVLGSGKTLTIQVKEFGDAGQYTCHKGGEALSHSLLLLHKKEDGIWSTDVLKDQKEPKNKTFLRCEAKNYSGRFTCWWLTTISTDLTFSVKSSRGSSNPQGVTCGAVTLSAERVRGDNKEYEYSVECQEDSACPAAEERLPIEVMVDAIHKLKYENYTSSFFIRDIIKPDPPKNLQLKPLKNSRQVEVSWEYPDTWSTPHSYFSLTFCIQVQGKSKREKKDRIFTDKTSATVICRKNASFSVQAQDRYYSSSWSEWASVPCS
T2 chain 2: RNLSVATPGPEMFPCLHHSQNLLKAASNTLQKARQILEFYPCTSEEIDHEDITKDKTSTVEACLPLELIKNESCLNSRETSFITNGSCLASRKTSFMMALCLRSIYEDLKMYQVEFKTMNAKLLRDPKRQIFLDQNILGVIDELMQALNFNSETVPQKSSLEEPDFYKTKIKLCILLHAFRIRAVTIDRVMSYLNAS

[5] = target: T1, recombinant purified human IL-12 p70; assay: SPR (BIAcore) as in Example 1.1.B, human IL-12p70
Experimental: as §1, with “Approximately” for “The BIACORE assay (Biacore, Inc, Piscataway, N.J.) determines the affinity of antibodies with kinetic measurements of on-, off-rate constants. Binding of antibodies to recombinant purified human IL-12 p70 or recombinant purified human IL-12 p40 were determined by surface plasmon resonance-based measurements with a Biacore® 3000 instrument (Biacore® AB, Uppsala, Sweden) using running HBS-EP (10 mM HEPES [pH 7.4], 150 mM NaCl, 3 mM EDTA, and 0.005% surfactant P20) at 25° C. All chemicals were obtained from Biacore® AB (Uppsala, Sweden) or otherwise from a different source as described in the text. Approximately”, “calculated. In this assay, on-rates as fast as 10⁶M⁻¹ s⁻¹ and off-rates as slow as 10⁻⁶ can be measured. […]” for “calculated.”

[6] = target: T1, recombinant purified human IL-12 p70; assay: cell-based or functional assay; remark: listed apart in the source

B1: additional humanized anti-IL-12 antibody 1A6.10 (antibody, human IgG1, V domains shown)
VH: EVTLRESGPGLVKPTQTLTLTCTLYGFSLSTSGMGVSWIRQPPGKGLEWLAHIWWDGDNYYNPSLKSQLTISKDTSKNQVVLKLTSVDPVDTATYYCARRTRVNYAMDYWGQGTLVTVSS
VL: DIQMTQSPSSLSASVGDRVTITCKASQSVSNDVAWYQQKPGKAPKLLIYYASNRYTGVPDRFSGSGYGTDFTFTISSLQPEDIATYYCQQDYNSPWTFGGGTKVEIKR
notes: Only variable domains tied to it
Av. IC50 (nM) huIL-12, PHA blast assay [1]: 0.15 nM | Kd [2]: 0.024 nM | koff [2]: 7.6e-06 s⁻¹ | kon [2]: 320000 M⁻¹ s⁻¹

B2: additional humanized anti-IL-12 antibody 1A6.12 (antibody, human IgG1, V domains shown)
VH: B1 VH
VL: B1 VL with Y36F
notes: as for B1
Av. IC50 (nM) huIL-12, PHA blast assay [1]: 0.088 nM | Kd [2]: 0.4 nM | koff [2]: 0.0003 s⁻¹ | kon [2]: 740000 M⁻¹ s⁻¹

B8: anti-IL-12p40 humanized antibody 1D4.6 (antibody, human IgG1, kappa, L234A L235A, V domains shown)
VH: EVTLRESGPALVKPTQTLTLTCTFSGFSLSKSVMGVSWIRQPPGKALEWLAHIYWDDDKYYNPSLKSRLTISKDTSKNQVVLTMTNMDPVDTATYYCTRRGIRSAMDYWGQGTTVTVSS
VL: DVVMTQSPDSLAVSLGERATINCKASQSVSNDVAWYQQKPGQPPKLLIYYASNRYTGVPDRFSGSGYGTDFTLTISSLQAEDVAVYYCQQDYNSPWTFGGGTKVEIKR
notes: COS cells
Kd [5]: < 0.01 nM | koff [5]: < 1e-05 s⁻¹ | kon [5]: 480000 M⁻¹ s⁻¹ | Av. IC50 (nM) huIL-12, PHA blast assay [6]: 0.15 nM

B9: anti-IL-12p40 humanized antibody 1D4.8 (antibody, human IgG1, kappa, L234A L235A, V domains shown)
VH: B8 VH with S30R
VL: B8 VL with V2I, Y67S
notes: Back-mutated CDR-grafted antibody; COS cells
Kd [5]: < 0.01 nM | koff [5]: < 1e-05 s⁻¹ | kon [5]: 120000 M⁻¹ s⁻¹ | Av. IC50 (nM) huIL-12, PHA blast assay [6]: 0.095 nM

B10: anti-IL-12p40 humanized antibody 1A6.9 (antibody, human IgG1, kappa, L234A L235A, V domains shown)
VH: B1 VH with G10A, L24F, Y25S, G46A, Q68R, K83T, L84M, S86N, V87M, L115T
VL: B8 VL with D1S, Y36F
notes: as for B9
Kd [5]: < 0.01 nM | koff [5]: < 1e-05 s⁻¹ | kon [5]: 350000 M⁻¹ s⁻¹ | Av. IC50 (nM) huIL-12, PHA blast assay [6]: 0.15 nM

Other lines, results leading:

Average IC50 (nM) Human IL-12, PHA blast IFN-γ assay [3]: 0.021 nM | Average IC50 (nM) Cyno IL-12, PHA blast IFN-γ assay [4]: 0.02 nM
B3: chimeric anti-human IL-12p40 antibody 1A6-Chim (antibody, human IgG1, kappa, L234A L235A, V domains shown)
VH: QVTLKESGPGILKPSQTLSLTCSFSGFSLSTSGMGVSWIRQPSGKGLEWLAHIWWDGDNYYNPSLKSQLTISKDTSRNQVFLRIATVDTADTATYYCARRTRVNYAMDYWGQGTSVTVSS
VL: SVVMTQTPKFLLVSAGDRVTITCKASQSVSNDVAWFQQKPGQSPKLLIYYASNRYTGVPDRFTGSGYGTDFTFTISTVQAEDLAVYFCQQDYNSPWTFGGGTKLEIKR

Average IC50 (nM) Human IL-12, PHA blast IFN-γ assay [3]: 0.12 nM | Average IC50 (nM) Cyno IL-12, PHA blast IFN-γ assay [4]: 0.32 nM
B4: chimeric anti-human IL-12p40 antibody 3G7-Chim (antibody, human IgG1, kappa, L234A L235A, V domains shown)
VH: QVQLQQSGAELMKPGASVKISCKATGYTFNDYWIEWVKQRPGHGLEWIGGFSHGSGSTNYNEKFKGKATFTADSSSNTAYMQLSSLTSEDSAVYYCARRRFRGMDYWGQGTSVTVSS
VL: B3 VL with V2I, F36Y, S76T, N93S, T97S

Average IC50 (nM) Human IL-12, PHA blast IFN-γ assay [3]: 0.11 nM | Average IC50 (nM) Cyno IL-12, PHA blast IFN-γ assay [4]: 0.29 nM
B5: chimeric antibody 3G7/1D4-Chim (chimeric 3G7 heavy chain with 1D4 chimeric light chain) (antibody, human IgG1, kappa, L234A L235A, V domains shown)
VH: B4 VH
VL: B3 VL with F36Y, T74I, Q79R

Average IC50 (nM) Human IL-12, PHA blast IFN-γ assay [3]: 0.17 nM | Average IC50 (nM) Cyno IL-12, PHA blast IFN-γ assay [4]: 0.15 nM
B6: chimeric anti-human IL-12p40 antibody 8E1-Chim (antibody, human IgG1, kappa, L234A L235A, V domains shown)
VH: EVKLVESGGGLVQPGGSRKLSCAASGFTFSDYGMVWVRQAPGKGLEWVASISSGSSNIYYADTVKGRFTISRDDPNNTLFLQMRSLRSEDTAMYYCARNPYWGQGTTLTVSS
VL: DIVMTQSQKFMSTSVGDRVSVTCKASQNVGTNVAWYQQKPGQSPKGLIYSASHRYSGVPDRFAGSGSGTDFTLTISNVQSEDLAEYFCQQYNSYPLTFGGGTKLELKR

Kd [5]: 0.76 nM | koff [5]: 0.001 s⁻¹ | kon [5]: 1.3e+06 M⁻¹ s⁻¹ | Av. IC50 (nM) huIL-12, PHA blast assay [6]: 10 nM
B7: anti-IL-12p40 humanized antibody 8E1.3 (antibody, human IgG1, kappa, L234A L235A, V domains shown)
VH: B6 VH with R18L, K19R, P75S, N76K, F80Y, R84N, R87K, S88T, M93V, L108V
VL: DIVMTQSPSSLSASVGDRVTITCKASQNVGTNVAWYQQKPEKAPKSLIYSASHRYSGVPSRFSGSGSGTDFTLTISSLQPEDFATYYCQQYNSYPLTFGGGTKVEIKR
notes: as for B9

Kd [5]: 0.2 nM | koff [5]: 0.00015 s⁻¹ | kon [5]: 780000 M⁻¹ s⁻¹ | Av. IC50 (nM) huIL-12, PHA blast assay [6]: 0.42 nM
B11: anti-IL-12p40 humanized antibody 3G7.3 (antibody, human IgG1, kappa, L234A L235A, V domains shown)
VH: EVQLVQSGAEVKKPGASVKVSCKATGYTFNDYWIEWVRQAPGQGLEWMGGFSHGSGSTNYNEKFKGRVTMTADSSTNTAYMELRSLRSDDTAVYYCARRRFRGMDYWGQGTTVTVSS
VL: EIVMTQSPATLSVSPGERATLSCKASQSVSNDVAWYQQKPGQAPRLLIYYASNRYTGVPDRFSGSGSGTEFTLTISSLQSEDFAVYYCQQDYSSPWSFGGGTKVEIKR
notes: as for B9
